Results from publication PMC6368630.
Blank lines part the entries; values can stand above or below the substance they belong to.

Key:
Test in all cases: BRET (mG protein recruitment) in HEK293 cells
Venus-tagged mGsq = settings: highest WNT-5A concentration shown (about log 3 ng/ml); n = 5; mean ± s.e.m.; parent: est. 101; read off a plot
Venus-tagged mGsi = settings: mean ± s.e.m., read off a plot
Venus-tagged mGs = settings: highest WNT-5A concentration shown (about log 2.5-3 ng/ml); n = 8; mean ± s.e.m.; parent: est. 100.1; read off a plot
Venus-tagged mG13 = settings: n = 6, mean ± s.e.m., read off a plot

- response (Venus-tagged mGsq): 103 % of vehicle
Substance: SNAP-FZD5-Rluc8 (from UniProt Q13467) R449A

- response (Venus-tagged mGsi; highest WNT-5A concentration shown (about log 3.5 ng/ml), wild type n = 7, R416A n = 6, parent: est. 104): 109 % of vehicle
Substance: SNAP-FZD6-Rluc8 (from UniProt O60353) R416A

- response (Venus-tagged mGs): 102 % of vehicle
Substance: SNAP-FZD7-Rluc8 (from UniProt O75084) R470A

- response (Venus-tagged mG13; highest WNT-5A concentration shown (about log 3-3.5 ng/ml), parent: est. 105.5): 106 % of vehicle
- response (Venus-tagged mG13; second-highest WNT-5A concentration shown (about log 2.5 ng/ml), parent: est. 100.0): 103 % of vehicle
Substance: hFZD4-Nluc (from UniProt Q9ULV1) K436A

- response (Venus-tagged mGsi; SAG alone, at the peak of the bell-shaped curve (about log -9.5 M), n = 6, parent: est. 100.9): 102 % of vehicle
Substance: mouse SMO-Rluc8 (from UniProt P56726) R455A
